{
  "source": "paper PMC4860839",
  "about": "“Structures of the APC–ARM domain in complexes with discrete Amer1/WTX fragments reveal that it uses a consensus mode to recognize its binding partners” (Cell Discovery, 2015)",
  "parents": {"B1": {"name": "pBTM-APC–ARM (residues 308–789), two-hybrid bait [human] / Amer1-A1 (murine, residues 279–367), two-hybrid prey [murine] (parent complex)", "chain 1": "LGTKVEMVYSLLSMLGTHDKDDMSRTLLAMSSSQDSCISMRQSGCLPLLIQLLHGNDKDSVLLGNSRGSKEARARASAALHNIIHSQPDDKRGRREIRVLHLLEQIRAYCETCWEWQEAHEPGMDQDKNPMPAPVEHQICPAVCVLMKLSFDEEHRHAMNELGGLQAIAELLQVDCEMYGLTNDHYSITLRRYAGMALTNLTFGDVANKATLCSMKGCMRALVAQLKSESEDLQQVIASVLRNLSWRADVNSKKTLREVGSVKALMECALEVKKESTLKSVLSALWNLSAHCTENKADICAVDGALAFLVGTLTYRSQTNTLAIIESGGGILRNVSSLIATNEDHRQILRENNCLQTLLQHLKSHSLTIVSNACGTLWNLSARNPKDQEALWDMGAVSMLKNLIHSKHKMIAMGSAAALRNLMANRPAKYKDANIMSPGSSLPSLHVRKQKALEAELDAQHLSETFDNIDNLSPKASHRSKQ", "chain 2": "SLEEPHTSETEGKVVAGEVNPPNGPVGDQLSLLFGDVTSLKSFDSLTGCGDIIAEQDMDSMTDSMASGGQRANRDGTKRSSCLVTYQGG"}, "B2": {"name": "pBTM-APC–ARM (residues 308–789), two-hybrid bait [human] / Amer1-A4 (human, residues 337–455), two-hybrid prey [human] (parent complex)", "chain 1": "B1 chain 1", "chain 2": "MDSMTDSMASGGQRANRDGTKRSSCLVTYQGGGEEMALPDDDDEEEEEEEEVELEEEEEEVKEEEEDDDLEYLWETAQMYPRPNMNLGYHPTTSPGHHGYMLLDPVRSYPGLAPGELLT"}, "B3": {"name": "Amer1-A4 (human, residues 337–455), two-hybrid prey [human] / pBTM-APC–ARM (residues 308–789), two-hybrid bait [human] (parent complex)", "chain 1": "B2 chain 2", "chain 2": "B1 chain 1"}, "B4": {"name": "Amer1-A2 (human, residues 380–531), two-hybrid prey [human] / pBTM-APC–ARM (residues 308–789), two-hybrid bait [human] (parent complex)", "chain 1": "EEEEEEEEVELEEEEEEVKEEEEDDDLEYLWETAQMYPRPNMNLGYHPTTSPGHHGYMLLDPVRSYPGLAPGELLTPQSDQQESAPNSDEGYYDSTTPGFEDDSGEALGLVRRDCLPRDSYSGDALYEFYEPDDSLENSPPGDDCLYDLHGR", "chain 2": "B1 chain 1"}, "B5": {"name": "pBTM-APC–ARM (residues 308–789), two-hybrid bait [human] / Amer1-A2 (murine, residues 388–551), two-hybrid prey [murine] (parent complex)", "chain 1": "B1 chain 1", "chain 2": "EEEEEEEEEEEEEEEEEEEEEELLEDEEEVKDGEENDDLEYLWASAQIYPRFNMNLGYHTAISPSHQGYMLLDPVQSYPNLGLGELLTPQSDQQESAPNSDEGYYDSTTPGFEDDSGEALGLAHRDCLPRDSYSGDALYEFYEPDDSLEHSPPGDDCLYDLRGR"}, "B6": {"name": "Amer1-A1 (human, residues 280–369), two-hybrid prey [human] / pBTM-APC–ARM (residues 308–789), two-hybrid bait [human] (parent complex)", "chain 1": "SLEEPHSPETGEKVVAGEVNPPNGPVGDPLSLLFGDVTSLKSFDSLTGCGDIIAEQDMDSMTDSMASGGQRANRDGTKRSSCLVTYQGGG", "chain 2": "B1 chain 1"}},
  "data": [
    {"variants_of": "B1", "test": "yeast two-hybrid assay (relative β-galactosidase reporter activity); parent: 100", "units": {"percent of parent": "%"}, "values": [
      {"variant": "chain 1 M410K", "percent of parent": 33.7},
      {"variant": "chain 1 R242E", "percent of parent": 1.48},
      {"variant": "chain 1 K209E", "percent of parent": 0.09},
      {"variant": "chain 1 N243K", "percent of parent": 0.38},
      {"variant": "chain 1 N200K", "percent of parent": 1.86},
      {"variant": "chain 1 R420E", "percent of parent": 41.3}
    ]},
    {"variants_of": "B2", "test": "yeast two-hybrid assay (relative β-galactosidase reporter activity); parent: 100", "units": {"percent of parent": "%"}, "values": [
      {"variant": "chain 1 R242E", "percent of parent": 0.84},
      {"variant": "chain 1 R420E", "percent of parent": 132},
      {"variant": "chain 1 K209E", "percent of parent": 3.93},
      {"variant": "chain 1 N243K", "percent of parent": 0.28},
      {"variant": "chain 1 M410K", "percent of parent": 28.1},
      {"variant": "chain 1 N200K", "percent of parent": 0.28}
    ]},
    {"variants_of": "B3", "test": "yeast two-hybrid assay (relative β-galactosidase reporter activity); parent: 100", "units": {"percent of parent": "%"}, "values": [
      {"variant": "chain 1 E34K", "percent of parent": 0.85}
    ]},
    {"variants_of": "B4", "test": "yeast two-hybrid assay (relative β-galactosidase reporter activity); parent: 100", "units": {"percent of parent": "%"}, "values": [
      {"variant": "chain 1 D124K", "percent of parent": 0.17},
      {"variant": "chain 1 D119K", "percent of parent": 0.28}
    ]},
    {"variants_of": "B5", "test": "yeast two-hybrid assay (relative β-galactosidase reporter activity); parent: 100", "units": {"percent of parent": "%"}, "values": [
      {"variant": "chain 1 M410K", "percent of parent": 87.8},
      {"variant": "chain 1 R420E", "percent of parent": 75.2},
      {"variant": "chain 1 N243K", "percent of parent": 0.12},
      {"variant": "chain 1 R242E", "percent of parent": 0.06},
      {"variant": "chain 1 N200K", "percent of parent": 0.33},
      {"variant": "chain 1 K209E", "percent of parent": 0.27}
    ]},
    {"variants_of": "B6", "test": "yeast two-hybrid assay (relative β-galactosidase reporter activity); parent: 100", "units": {"percent of parent": "%"}, "values": [
      {"variant": "chain 1 D44K", "percent of parent": 31.9},
      {"variant": "chain 1 D51K", "percent of parent": 0},
      {"variant": "chain 1 T47R", "percent of parent": 65.2}
    ]}
  ]
}
